In US20220281959A1 (published 2022) one finds EC50 data, which are given here for six molecules.

Where two headings read alike, the source gives them in different places. Ends that are not written are not given here.

The target of experiment [1] is T1, HIV-1 MN gp41 recombinant protein produced in E. coli (565-771Delta642-725) (HIV-1 MN). Kind of experiment: ELISA.
Experiment [2] concerns the target T2, HXB2 gp41 recombinant protein (a.a. 534-681) (UniProt P04578 534-681). Kind of experiment: ELISA.
Experiment [3] addresses T3, HIV-1 MN gp41 (a.a. 542-666) produced in S2 cells (UniProt P05877 542-666). Kind of experiment: ELISA.
Experiment [4] concerns the target T4, BSA-PEP3 peptide (also: conjugated to BSA).
T4 peptide: PWNASWSNKSLDDIW
Kind of experiment: ELISA.

Experiment [5] concerns the target T2, HXB2 gp41 recombinant protein (a.a. …). In words: ELISA. This is another data set of the same source.
Experiment [6] has as its target T1, HIV-1 MN gp41 recombinant protein …. In words: ELISA. This is another data set of the same source.
The target in experiment [7] is T4, BSA-PEP3 peptide. In words: ELISA.
For experiment [8], the target named is T2, HXB2 gp41 recombinant protein (a.a. …). Kind of experiment: sandwich ELISA; capture Ab.
The target in experiment [9] is T3, HIV-1 MN gp41 (a.a. 542-666) produced …. Kind of experiment: ELISA; curve not in saturation.
In experiment [10] the target is T2, HXB2 gp41 recombinant protein (a.a. …). In words: ELISA; curve not in saturation.
For experiment [11], the target named is T3, HIV-1 MN gp41 (a.a. 542-666) produced …. In words: ELISA. The source holds these as a separate data set.

B1: anti-PEP3 mAb 15B4 (antibody, V domains shown)
VH: QVQLQQSGPELVRPGTSVKISCKAPGYSFTSHWMQWLRQRPGQGLEWIGEIFPGSGKTYYNEKFKDKATLTADTSSTTVYMQFSSLTSEDSAVYFCASDYDGGDYWGQGTTLTVSS
VL: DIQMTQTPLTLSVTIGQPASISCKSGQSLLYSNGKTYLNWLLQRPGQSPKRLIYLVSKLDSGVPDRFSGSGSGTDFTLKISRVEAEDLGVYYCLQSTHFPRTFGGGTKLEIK
Consider B1, for which the EC50 was 0.3 µg/mL in experiment [1]; 0.12 µg/mL in [2]; greater than 11 µg/mL in experiment [3]; 0.02 µg/mL with BSA-PEP3 peptide [4]; 0.12 µg/mL in [5]; 0.3 µg/mL in experiment [6]. Moreover, the figures for the EC50 (with BSA-PEP3 peptide [7]; in experiment [8]; in [9]) were 0.02 µg/mL, 0.355 µg/mL and greater than 11 µg/mL, respectively.

B2: anti-PEP3 mAb 9B12 (antibody, V domains shown)
VH: QVQLQQSGPELVKPGASVKISCKASGYGFSDSWMNWVKQRPGKGLDWIGRIYPGDGDTDYNGKFKDKATLTADKSSTTAYMQLSSLTSEDSAVYFCAYLGHWGQGTLVTVSA
VL: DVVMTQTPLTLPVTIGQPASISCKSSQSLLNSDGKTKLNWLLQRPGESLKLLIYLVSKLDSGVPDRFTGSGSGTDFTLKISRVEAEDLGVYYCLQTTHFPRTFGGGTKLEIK
Consider B2, for which the EC50 in experiment [1] was greater than 30 µg/mL; in [3] it was greater than 700 µg/mL; in the experiment with BSA-PEP3 peptide [4] it was 0.02 µg/mL; in experiment [5] it was greater than 137 µg/mL; in experiment [6] it was greater than 30 µg/mL; with BSA-PEP3 peptide [7], 0.02 µg/mL. The figures for the EC50 in experiment [9] and in [10] were greater than 700 µg/mL and greater than 137 µg/mL, respectively.

B3: anti-PEP3 mAb 8D5 (antibody, V domains shown)
VH: QVQLQQPGAELIEPGTSVKLSCKASGYTFTTYWMHWVKQRPGQGLEWIGMIHPNSGDTFYNENFKNKATLTVDISSSTVYMELSSLTSEDSAVYSCVKAGTGALDYWGQGTTLTVSS
VL: DVVMTQTPLSLPVSLGDQASISCRSSQSIVHSNRYTYLEWYLQRPGQSLKLLIYGVSNRFSGVPDRFSGSGSGTDFILKISRVEAEDMGVYYCFQGTHVPFTFGSGTKLEIK
In the case of B3, the EC50 amounted to 0.02 µg/mL in experiment [1]; 0.09 µg/mL in [11]; 0.0005 µg/mL in experiment [2]; 0.09 µg/mL in [3]; 0.006 µg/mL with BSA-PEP3 peptide [4]; 0.0005 µg/mL in experiment [5]. For the same molecule, the concentration for a half-maximal effect (EC50) in experiment [6] is 0.02 µg/mL; with BSA-PEP3 peptide [7] it was 0.006 µg/mL; in [8] it was 0.018 µg/mL.

B4: anti-PEP3 gp41 mAb 4G1 (antibody, V domains shown)
VL: DVVMTQTPLSLCVSLGDQASISCRTSQSIVHSNRYTYLEWYLQKPGQPLKLLIYGIANRFSGVPDRFSGSGSGTDFTLKISRVEAEDMGVYYCLQGTHVPFTFGSGTKLEIK
V domain: QVQLQQPGAELVKPGASVKLSCKASGYIFRNYWMHWVKQRPGQGLEWIGMIHPNSDITHYNEKFKNRATLTVDKSSSTAYMQLNSLTSEDSAVYYCARGGLGVFDYWGQGTALRVSS
B4: the 50% effective concentration (EC50) in experiment [1] and in experiment [6] was 0.005 µg/mL in each case.

B5: anti-PEP3 mAb 5E12 (antibody, V domains shown)
VH: QIQLVQSGPELKKPGETVKISCKASGYTFRTYGMSWVKQAPGKGLKWMGWINTYSGVPRYVDDFKGRFALSLETSASTAYLQINNLKSEDTATYFCVREGYSYYGSSFHTMDYWGQGTSVTVSS
VL: DIQMTQTPLTLSVTIGHPASISCKSSQSLLHTNGKIYLNWLLQRPGQSPKRLIYLVSKLDSGVPDRFSGSGSGTDFTLKISRVEAEDLGVYYCLQSTHFPQTFGGGTKLEIK
Regarding B5, the concentration giving a half-maximal response (EC50) is greater than 13 µg/mL in experiment [1]; greater than 19 µg/mL in experiment [3]; 0.015 µg/mL with BSA-PEP3 peptide [4]; greater than 20 µg/mL in [5]; greater than 13 µg/mL in [6]; 0.015 µg/mL with BSA-PEP3 peptide [7]. Also, the figures for the EC50 in experiment [9] and in experiment [10] were greater than 19 µg/mL and greater than 20 µg/mL, respectively.

B6: anti-PEP3 mAb 3A2 (antibody, V domains shown)
VH: QVQLQQPGAELVKPGASVKLSCKASGYIFTNYWMHWVRQRPGQGPEWIGMIHPNRGDLHYSEKFNNKATLTVDKSSSTAYMQLNSLASEDSAVYFCARAGLGVFDYWGQGSTLTVSS
VL: DVVMTQTPLSLPVSLGDQVSMSCRSSQSIEHSNRNTYLEWYLHKPGQAPQLLIYGVSNRFTGVPDRFSGSGSGTDFTLKISRVEAEDMGVYHCLQGTHVPFTFGSGTKLEIK
For B6, the EC50 is 0.02 µg/mL in experiment [1]; 0.78 µg/mL in experiment [11]; 0.0044 µg/mL in [2]; 0.78 µg/mL in experiment [3]; 0.007 µg/mL in the experiment with BSA-PEP3 peptide [4]; 0.0044 µg/mL in experiment [5]. The results for the EC50 (in [6]; with BSA-PEP3 peptide [7]; in [8]) were 0.02 µg/mL, 0.007 µg/mL and 0.0098 µg/mL, respectively.
